Measurements published in patent US6020130, “Nucleic acid ligands that bind to and inhibit DNA polymerases” (NeXstar Pharmaceuticals, Inc.).

Experiments:
Taq DNA polymerase [1] = target: T1, Taq DNA polymerase (UniProt P19821 P19821:1-832); assay: inhibition; hairpin extension assay; IT50 41 C; conditions: tags: rTaq, 94 kDa, Roche Molecular Systems / Perkin Elmer
Method: (§1) In a typical inhibition assay, a 20 μL reaction contained either 0.25 pmoles of Taq polymerase (5 U) or 0.125 pmoles of Tth polymerase (2.5 U), oligonucleotide inhibitor (at varying concentrations), 10 mM Tris-HCl (pH 8.3), 50 mM KCl, 2.5 mM MgCl_2, and 1 mM each dNTPs. Gel purified, 5'-end-labeled hairpin DNA substrate (DNA-HP; 5'-[…]-3') was then added to a final concentration of 250 nM and the reaction was incubated at 30° C. for 1 hour. The reaction was stopped by adding 5 μL of 0.5 M EDTA (pH 8.0) followed by formamide gel loading buffer. Extension products were resolved on 10% polyacrylamide gels under denaturing conditions. The amount of extension products were quantitated by phosphorimager. The amounts of products formed in the presence of inhibitor was normalized to the product formed in the absence of an inhibitor to obtain the percent of product.

Tth DNA polymerase [2] = target: T2, Tth DNA polymerase (UniProt P52028 P52028:1-834); assay: inhibition; hairpin extension assay; IT50 34.5 C; conditions: tags: rTth, 94 kDa, Roche Molecular Systems / Perkin Elmer
Method: as §1

Tth DNA polymerase [3] = target: T2, Tth DNA polymerase; assay: inhibition; hairpin extension assay; IT50 35.6 C; conditions: tags: rTth, 94 kDa, Roche Molecular Systems / Perkin Elmer
Method: (§2) Deletion analysis of the full-length TQ21 sequence led to the identification of a 51-mer sequence (Trnc.21 (SEQ ID NO:70) (Table 4)) that retained the ability to inhibit both Taq and Tth polymerases. In addition to the entire 30-nucleotide random region, the Trnc.21 sequence contained 9 and 12 nucleotides from the 5' and 3' fixed regions, respectively (Table 4). […] The calculated $IT50$ values for Taq polymerase and Tth polymerase are 34° C. and 35.6° C., respectively (FIG. 13C). The hairpin extension assays were carried out between the temperatures of 35 and 50° C. for 1 hour with […] Trnc.21. Thus, based on the affinity and the values of $IC50$ and $IT50$, the truncated form of TQ21 is a better inhibitor than the full-length sequence.
as §1, with “conditions.” for “conditions. The amount of extension products were quantitated by phosphorimager. The amounts of products formed in the presence of inhibitor was normalized to the product formed in the absence of an inhibitor to obtain the percent of product.”

Taq DNA polymerase [4] = target: T1, Taq DNA polymerase; assay: inhibition; hairpin extension assay; IT50 34 C; conditions: tags: rTaq, 94 kDa, Roche Molecular Systems / Perkin Elmer
Method: as §2
as §1, with “conditions.” for “conditions. The amount of extension products were quantitated by phosphorimager. The amounts of products formed in the presence of inhibitor was normalized to the product formed in the absence of an inhibitor to obtain the percent of product.”

Taq DNA polymerase [5] = target: T1, Taq DNA polymerase; assay: inhibition; room temperature 16 h, 12.5 nM Taq; 22 nM at 30 C 1 h; IT50 41 C; conditions: tags: rTaq, 94 kDa, Roche Molecular Systems / Perkin Elmer
Method: (§3) Since the concentration of Taq polymerase used in the assay is 12.5 nM, enzyme inhibition by TQ30 (SEQ ID NO:50) is likely to be a result of stoichiometric binding.
as §1

Tth DNA polymerase [6] = target: T2, Tth DNA polymerase; assay: inhibition; room temperature; IT50 29 C; conditions: tags: rTth, 94 kDa, Roche Molecular Systems / Perkin Elmer
Method: as §3, §1

Taq DNA polymerase [7] = target: T1, Taq DNA polymerase; assay: inhibition; hairpin extension assay; conditions: tags: rTaq, 94 kDa, Roche Molecular Systems / Perkin Elmer; stem-loop dimer
Method: as §1

Taq DNA polymerase [8] = target: T1, Taq DNA polymerase; assay: filter; conditions: tags: rTaq, 94 kDa, Roche Molecular Systems / Perkin Elmer; stem-loop dimer
Method: For isolation of DNA molecules that bind tightly to Taq polymerase and Tth polymerase, respectively, the nitrocellulose filter partitioning method was used as described in the SELEX Patent Applications. Briefly, gel-purified ^32P ss-DNA pools labeled at the 5' end were suspended in the binding buffer, heated to 80° C., chilled on ice and then brought to room temperature. The DNA (5–10 pM) was then incubated for 15 minutes at room temperature with varying amounts of the target polymerase in 50 µL of the appropriate binding buffer containing 0.1 µg of tRNA and 0.01% hSA. The DNA concentrations were kept lower than 100 pM to ensure equilibrium in the presence of excess protein concentrations. After 15 minutes the binding reaction mixtures were passed through pre-wet nitrocellulose/cellulose acetate mixed matrix filters (0.45 µm pore size, Millipore Corporation, Bedford, Mass.) and the filters were immediately washed with 5 mL of binding buffer. The amount of DNA bound to the filters was quantitated by measuring the radioactivity of the filters by liquid scintillation counting. The quantity of DNA bound to filters in the absence of protein was used for background correction. The percentage of input DNA retained on each filter was plotted against the corresponding log of the polymerase concentration (FIGS. 1 and 2). […]

Taq DNA polymerase [9] = target: T1, Taq DNA polymerase; assay: inhibition; hairpin extension assay, monomer; conditions: tags: rTaq, 94 kDa, Roche Molecular Systems / Perkin Elmer; stem-loop
Method: as §1

Taq DNA polymerase [10] = target: T1, Taq DNA polymerase; assay: inhibition; room temperature 16 h, 12.5 nM Taq; 67 nM at 30 C 1 h; IT50 37 C; conditions: tags: rTaq, 94 kDa, Roche Molecular Systems / Perkin Elmer
Method: as §3, §1

T2 sequence (P52028 whole entry, one chain of several): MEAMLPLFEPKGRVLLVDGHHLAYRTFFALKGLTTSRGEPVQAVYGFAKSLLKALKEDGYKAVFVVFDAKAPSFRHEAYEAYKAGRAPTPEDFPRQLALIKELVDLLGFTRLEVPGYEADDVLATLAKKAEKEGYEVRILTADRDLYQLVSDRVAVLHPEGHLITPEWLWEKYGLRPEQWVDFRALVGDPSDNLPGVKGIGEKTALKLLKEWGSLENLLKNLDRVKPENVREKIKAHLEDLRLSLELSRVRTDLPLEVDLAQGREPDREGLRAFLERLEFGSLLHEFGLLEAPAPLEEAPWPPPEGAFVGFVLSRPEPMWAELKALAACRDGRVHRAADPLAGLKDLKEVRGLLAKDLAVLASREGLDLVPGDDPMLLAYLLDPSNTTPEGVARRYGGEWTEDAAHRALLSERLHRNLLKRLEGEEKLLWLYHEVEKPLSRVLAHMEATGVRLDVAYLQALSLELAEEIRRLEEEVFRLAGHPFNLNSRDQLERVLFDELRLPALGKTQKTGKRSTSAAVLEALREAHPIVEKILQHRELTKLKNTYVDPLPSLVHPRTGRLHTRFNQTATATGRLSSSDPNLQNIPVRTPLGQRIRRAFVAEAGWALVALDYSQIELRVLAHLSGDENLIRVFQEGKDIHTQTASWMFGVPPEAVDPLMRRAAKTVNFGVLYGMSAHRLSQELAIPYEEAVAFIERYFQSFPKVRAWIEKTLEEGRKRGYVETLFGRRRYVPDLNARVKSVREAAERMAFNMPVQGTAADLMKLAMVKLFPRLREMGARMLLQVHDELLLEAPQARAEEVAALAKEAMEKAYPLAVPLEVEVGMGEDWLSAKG
T1 sequence (P19821 whole entry, one chain of several): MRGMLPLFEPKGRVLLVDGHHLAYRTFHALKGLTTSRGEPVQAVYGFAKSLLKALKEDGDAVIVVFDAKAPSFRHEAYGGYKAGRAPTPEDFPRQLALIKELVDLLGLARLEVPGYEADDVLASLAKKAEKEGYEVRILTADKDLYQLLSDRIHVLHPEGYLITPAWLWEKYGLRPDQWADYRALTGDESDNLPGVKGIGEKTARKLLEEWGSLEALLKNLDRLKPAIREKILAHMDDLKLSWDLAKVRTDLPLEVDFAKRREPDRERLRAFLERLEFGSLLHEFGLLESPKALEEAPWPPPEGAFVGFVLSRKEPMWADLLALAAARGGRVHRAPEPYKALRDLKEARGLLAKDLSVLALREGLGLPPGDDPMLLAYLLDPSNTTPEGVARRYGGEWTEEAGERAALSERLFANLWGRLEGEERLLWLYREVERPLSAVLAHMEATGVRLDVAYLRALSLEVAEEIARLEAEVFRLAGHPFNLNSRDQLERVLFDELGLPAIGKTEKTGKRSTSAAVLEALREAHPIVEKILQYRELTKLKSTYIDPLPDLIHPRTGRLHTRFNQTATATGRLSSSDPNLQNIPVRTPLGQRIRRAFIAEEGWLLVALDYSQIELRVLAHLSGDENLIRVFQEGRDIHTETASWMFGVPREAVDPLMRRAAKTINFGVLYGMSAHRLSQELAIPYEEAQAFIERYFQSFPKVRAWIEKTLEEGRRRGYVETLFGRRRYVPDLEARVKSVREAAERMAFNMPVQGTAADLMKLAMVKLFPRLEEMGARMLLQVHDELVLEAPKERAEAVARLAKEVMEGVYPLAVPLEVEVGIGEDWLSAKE

B1: D.21-D.30 heterodimer (ssDNA)
DNA: TGGCGGAGCGATCATCTCAGAGCATTCTTAGCGTTTTGTTCTTGTGTATGATTTGCCGGCCAATGTACAGTATTGGCCGGC
B1 gave an IC50 (Taq DNA polymerase [1]) of ~30 nM and an IC50 (Tth DNA polymerase [2]) of ~30 nM.

B2: Trnc.21 (ssDNA)
DNA: TGGCGGAGCGATCATCTCAGAGCATTCTTAGCGTTTTGTTCTTGTGTATGA
In the case of B2, the IC50 (Tth DNA polymerase [3]) is reported as 36.5 nM and the IC50 (Taq DNA polymerase [4]) is reported as 21 nM.

B3: TQ30 (ssDNA)
DNA: TTCTCGGTTGGTCTCTGGCGGAGCAAGACCAGACAATGTACAGTATTGGCCTGATCTTGTGTATGATTCGCTTTTCCC
With B3 the IC50 (Taq DNA polymerase [5]) was 6.5 nM and the IC50 (Tth DNA polymerase [6]) was 60 nM.

B4: D.30-D.30 homodimer (ssDNA)
DNA 1: GCCGGCCAATGTACAGTATTGGCCGGC
DNA 2: GCCGGCCAATGTACAGTATTGGCCGGC
modifications: two Trnc.2-30 copies joined with symmetrical 3'-3' branching CPG linker (linker region drawn in figure only)
With B4 the IC50 (Taq DNA polymerase [7]) was 14 nM and the Kd (Taq DNA polymerase [8]) was 0.0475 nM.

Work on GCCGGCCAATGTACAGTATTGGCCGGC (ssDNA) [Trnc.2-30] yielded an IC50 (Taq DNA polymerase [9]) of 48 nM.

B5: TQ21 (ssDNA)
DNA: TTCTCGGTTGGTCTCTGGCGGAGCGATCATCTCAGAGCATTCTTAGCGTTTTGTTCTTGTGTATGATTCGCTTTTCCC
For B5, the IC50 (Tth DNA polymerase [6]) was 36 nM and the IC50 (Taq DNA polymerase [10]) was 10 nM.
